In paper PMC8096250 one finds binding signal (% of RNPs substrate bound) data, which are given here for one substance.

This data set has as its target Nhp2 (W);Cbf5;Nop10;Gar1 (Saccharomyces cerevisiae;Saccharomyces cerevisiae;Saccharomyces cerevisiae;Saccharomyces cerevisiae) (UniProt P33322+Q6Q547+P28007). The data set can be described thus: smFRET. The following applies: substrate RNA binding to the reconstituted H5 RNP; substrate is an analogue RNA; sequence as assayed not given; smFRET with immobilized 3'-biotin RNA; smFRET buffer not in the material (RNP reconstitution for activity assays: 12.5 mM Tris/HCl pH 8.0, 250 mM NaCl, 30 °C).

As for “H5 U61-donor snoRNA with acceptor-labeled H5 substrate RNA”, the binding signal (% of RNPs substrate bound) was 37.
